Results from patent US11278600B2, “Human alpha-galactosidase variants” (Codexis, Inc., priority 2014, dated 2022).

Columns and labels:
Format in all cases: biochemical
[1] = HTP-analysis of supernatants pretreated with bovine serum (MUGal hydrolysis); conditions: activity of the variant/activity of Rd2BB (SEQ ID NO: 10), yeast culture supernatant
Method in brief: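 Yeast INVSc1 culture supernatants containing secreted GLA variants were mixed with bovine serum (20:80) and held 1 h at 37° C. Serum-treated samples then reacted with MUGal (4 mM stock) in citrate/McIlvaine buffer (pH 4.3/4.8) for 180 min at 37° C., were quenched with sodium carbonate, and read by fluorescence (Ex 355, Em 448 nm).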

[2] = HTP-analysis of supernatants pretreated with base (MUGal hydrolysis); conditions: challenge at pH 7.6; activity of the variant/activity of Rd2BB (SEQ ID NO: 10); yeast culture supernatant
Method in brief: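 Fluorescence of released 4-MU (Ex 355 nm, Em 448 nm) after carbonate quench reports MUGal hydrolysis by GLA variants secreted from INVSc1 yeast. Before the acidic (pH 4.3-4.8) 30-180 min reaction at 37° C, supernatants had been pre-incubated at pH 7.0-9.7 for 1-18 h at 37° C.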

[3] = HTP-analysis of yeast culture supernatants, no challenge (MUGal hydrolysis); conditions: activity of the variant/activity of Rd2BB (SEQ ID NO: 10), yeast culture supernatant
Method in brief: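 GLA variants expressed in yeast INVSc1, secreted into SD-Ura broth over 66-84 h at 30° C; clarified supernatants tested without challenge. Supernatant mixed with McIlvaine buffer pH 4.8 and 2 mM MUGal (citrate/KCl, pH 4.6), 37° C for 30-180 min, carbonate-quenched, fluorescence Ex 355/Em 448 nm.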

[4] = HTP-analysis of supernatants pretreated with acid (MUGal hydrolysis); conditions: challenge at pH 4.2; activity of the variant/activity of Rd2BB (SEQ ID NO: 10); yeast culture supernatant
Method in brief: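 MUGal hydrolysis was tracked by fluorescence (Ex 355 nm, Em 448 nm) after a 30-180 min reaction at 37° C. in pH 4.8 McIlvaine/citrate buffer, stopped with 1 M sodium carbonate. Beforehand, yeast (INVSc1) culture supernatants carrying GLA variants were held 1-3 h at 37° C. in acidic McIlvaine buffer, pH 3.3-4.3.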

Molecule	Relative Activity of GLA Variants After Challenge with Serum [1]	Relative Activity of GLA Variants After Challenge at pH 7.6 [2]	Relative Activity of GLA Variants After No Challenge (NC) [3]	Relative Activity of GLA Variants After Challenge at pH 4.2 [4]
280 (protein, Synthetic Polypeptide sequence of Variant No. 280 of mature Human GLA) LDNGLARTPTMGWLHWERFMCNLDCQEEPDSCISEKLFMEMAERMVSEGWKDAGYEYLCIDDCWMAPQRDSEGRLQADPQRFPHGIRQLANYVHSKGLKLGIYADVGNKTCAGFPGSFGYYDIDAQTFADWGVDLLKFDGCYCDSLENLADGYKHMSLALNRTGRSIVYSCEWPLYMWPFQKPNYTEIRQYCNHWRNFADIDDSWASIKSILDWTSRNQERIVDVAGPGGWNDPDMLVIGNFGLSWNQQVTQMALWAIMAAPLFMSNDLRHISPQAKALLQDKDVIAINQDPLGKQGYQLRKGDNFEVWERPLSGLAWAVAMINRQEIGGPRSYTIAVASLGKGVACNPACFITQLLPVKRKLGFYDWDSRLRSHINPTGTVLLQLENTMQMSLKDLL	+ (+ = 0.5 to 1.5 relative activity over Rd2BB (SEQ ID NO: 10))	+ (+ = 0.5 to 1.5 relative activity over Rd2BB (SEQ ID NO: 10))	+ (+ = 0.5 to 1.5 relative activity over Rd2BB (SEQ ID NO: 10))	+ (+ = 0.5 to 1.5 relative activity over Rd2BB (SEQ ID NO: 10))
281 (protein, Synthetic Polypeptide sequence of Variant No. 281 of mature Human GLA) LDNGLARTPTMGWLHWERFMCNLDCQEEPDSCISEKLFMEMAERMVSEGWKDAGYEYLCIDDCWMAPQRDSEGRLQADPQRFPHGIRQLANYVHSKGLKLGIYADVGNKTCAGFPGSFGYYDIDAQTFADWGVDLLKFDGCYCDSLENLADGYKHMSLALNRTGRSIVYSCEWPLYMWPFQKPNYTEIRQYCNHWRNFADIDDSWASVKSILDWTSFNQEKIVDVAGPGGWNDPDMLVIGNFGLSWNQQVTQMALWAIMAAPLFMSNDLRHISPQAKALLQDKDVIAINQDPLGKQGYQLRQGDNFEVWERPLSGLAWAVAVINRQEIGGPRSYTIAVASLGDGVACNPACFITQLLPVKRKLGLYEWTSRLKSHINPTGTVLLQLENTMQMSLKDLL	+ (+ = 0.5 to 1.5 relative activity over Rd2BB (SEQ ID NO: 10))	+ (+ = 0.5 to 1.5 relative activity over Rd2BB (SEQ ID NO: 10))	+ (+ = 0.5 to 1.5 relative activity over Rd2BB (SEQ ID NO: 10))	+ (+ = 0.5 to 1.5 relative activity over Rd2BB (SEQ ID NO: 10))
282 (protein, Synthetic Polypeptide sequence of Variant No. 282 of mature Human GLA) LDNGLARTPTMGWLHWERFMCNLDCQEEPDSCISEKLFMEMAERMVSEGWKDAGYEYLCIDDCWMAPQRDSEGRLQADPQRFPHGIRQLANYVHSKGLKLGIYADVGNKTCAGFPGSFGYYDIDAQTFADWGVDLLKFDGCYCDSLENLADGYKHMSLALNRTGRSIVYSCEWPLYMWPFQKPNYTEIRQYCNHWRNFADIDDSWASIKSILDWTSFNQERIVDVAGPGGWNDPDMLVIGNFGLSWDQQVTQMALWAIMAAPLFMSNDLRHISPQAKALLQDKDVIAINQDPLGKQGYQLRQGDNFEVWERPLSGLAWAVAMINRQEIGGPRSYTIPVASLGKGVACNPACFITQLLPVKRKLGFYEWTSRLRSHINPTGTVLLQLENTMQMSLKDLL	+ (+ = 0.5 to 1.5 relative activity over Rd2BB (SEQ ID NO: 10))	+ (+ = 0.5 to 1.5 relative activity over Rd2BB (SEQ ID NO: 10))	+ (+ = 0.5 to 1.5 relative activity over Rd2BB (SEQ ID NO: 10))	+ (+ = 0.5 to 1.5 relative activity over Rd2BB (SEQ ID NO: 10))
